Results from paper PMC11650718, “α-Amino-β-carboxymuconate-ε-semialdehyde decarboxylase catalyzes enol/keto tautomerization of oxaloacetate” (The Journal of Biological Chemistry, 2024).

B1: α-amino-β-carboxymuconate-ε-semialdehyde decarboxylase (ACMSD) from Pseudomonas fluorescens KU-7 (enzyme)
chain: MKKPRIDMHSHFFPRISEQEAAKFDANHAPWLQVSAKGDTGSIMMGKNNFRPVYQALWDPAFRIEEMDAQGVDVQVTCATPVMFGYTWEANKAAQWAERMNDFALEFAAHNPQRIKVLAQVPLQDLDLACKEASRAVAAGHLGIQIGNHLGDKDLDDATLEAFLTHCANEDIPILVHPWDMMGGQRMKKWMLPWLVAMPAETQLAILSLILSGAFERIPKSLKICFGHGGGSFAFLLGRVDNAWRHRDIVREDCPRPPSEYVDRFFVDSAVFNPGALELLVSVMGEDRVMLGSDYPFPLGEQKIGGLVLSSNLGESAKDKIISGNASKFFNINV
notes: ACMSD from Pseudomonas fluorescens KU-7, UniProt Q83V25; Zinc-dependent metalloenzyme; also called pfACMSD; wild-type ACMSD; source: stored in 25 mM HEPES pH 7.0

Experiments:
O=C(O)CC(=O)C(=O)O = test system: T1, O=C(O)CC(=O)C(=O)O; experiment: purified protein; assay type: biochemical, Pseudomonas fluorescens; conditions: HEPES pH 7.0, keto to enol form
T1 construct: recombinant from pET16b-ACMSD, purified; Zn-dependent homodimer with Arg239* from adjacent subunit

purified protein = substrate: O=C(O)CC(=O)C(=O)O; experiment: purified protein; conditions: HEPES pH 7.0, Zn enzyme, keto to enol form
[1] = molecular target: the molecule itself; experiment: crystal structure; malonate-bound wild-type ACMSD, 10 mg/ml (270 uM); 50 mM malonate in place of Tacsimate, 0.1 M sodium citrate tribasic pH 5.6, 12% (w/v) PEG 3350; 2.21 A

| Molecule | Km (O=C(O)CC(=O)C(=O)O) [µM] | kcat (O=C(O)CC(=O)C(=O)O) [s⁻¹] | kcat/Km (O=C(O)CC(=O)C(=O)O) [M⁻¹ s⁻¹] | Km (purified protein) [µM] | kcat (purified protein) [s⁻¹] | kcat/Km (purified protein) [M⁻¹ s⁻¹] | binding result [1] |
| --- | --- | --- | --- | --- | --- | --- | --- |
| ACMSD (pfACMSD) (Pseudomonas fluorescens; H228A) | 570 ± 130 | 2.98 ± 0.35 | 5200 |  |  |  |  |
| ACMSD (pfACMSD) (Pseudomonas fluorescens; W194A) | 800 ± 80 | 4.18 ± 0.25 | 5200 |  |  |  |  |
| B1 |  |  |  | 1120 ± 140 | 6.51 | 5800 | binds |
